This is an account of results in doi:10.1101/2020.07.23.218024 (bioRxiv, 2020).

The target of experiment [1] is microtubules / purified porcine brain tubulin (porcine). In words: ELISA. For orientation: An ELISA detects its analyte on a solid surface through an enzyme-linked reagent.
A further experiment concerns the target ß-tubulin(388–444) (human, UniProt P07437 388-444). In words: ITC. (In ITC the heat of successive injections is recorded.)
For experiment [2], the target named is T1, 15N-PEX14(16–80W) (human, UniProt O75381 16-80, 15N-labelled).
T1 chain: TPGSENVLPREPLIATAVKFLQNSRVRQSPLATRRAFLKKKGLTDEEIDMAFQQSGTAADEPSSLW
As to the kind of experiment: NMR titration.

The target in experiment [3] is T1, 15N-PEX14(16–80W). In words: NMR titration.
The target of experiment [4] is full-length His6-TEV-PEX5S (human, UniProt P50542-2 1-602). In words: ELISA.

Chain of ß-tubulin(388–444) (P07437 388-444): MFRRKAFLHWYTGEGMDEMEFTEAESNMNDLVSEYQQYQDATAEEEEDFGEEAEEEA

B1: GST-PEX14-NTD F52A (domain or fragment)
chain: TPGSENVLPREPLIATAVKFLQNSRVRQSPLATRRAALKKKGLTDEEIDMAFQQSGTAADEPSSL
For orientation: Kd means the equilibrium constant for the complex coming apart. Low readings indicate tighter binding, high ones weaker binding. As to B1, the Kd in experiment [1] was 39 ± 7.4 nM.

B2: PEX14-NTD (as used in ITC) (domain or fragment)
chain: TPGSENVLPREPLIATAVKFLQNSRVRQSPLATRRAFLKKKGLTDEEIDMAFQQSGTAADEPSSL
In general, stoichiometry N refers to the number of molecules, sites or subunits per partner or assembly. As to B2, in the experiment with ß-tubulin(388–444), the “stoichiometry N” value was determined as 2. ALSENWAQEFLAAGDA [WAQEF peptide]: in the experiment with 15N-PEX14(16–80W) [2], the binding result is listed as “binds”.

For the molecule RKAFLHWYTGEGMDE [FLHWY peptide], the Kd with 15N-PEX14(16–80W) [3] was roughly 282000 nM.

B3: GST-PEX14-NTD K56A (domain or fragment)
chain: MASSEQAEQPSQPSSTPGSENVLPREPLIATAVKFLQNSRVRQSPLATRRAFLKKAGLTDEEIDMAFQQSGTAADEPS
Regarding B3, in experiment [1], the Kd stood at 12.5 ± 1.3 nM.

B4: GST-PEX14-NTD K54A (domain or fragment)
chain: MASSEQAEQPSQPSSTPGSENVLPREPLIATAVKFLQNSRVRQSPLATRRAFLAKKGLTDEEIDMAFQQSGTAADEPS
In experiment [1], B4 came in with a Kd of 3.9 ± 0.2 nM.

B5: GST-PEX14-NTD F52A/K56A (domain or fragment)
chain: MASSEQAEQPSQPSSTPGSENVLPREPLIATAVKFLQNSRVRQSPLATRRAALKKAGLTDEEIDMAFQQSGTAADEPS
In experiment [1], B5 had a Kd of 89 ± 17 nM.

B6: GST-PEX14-NTD (domain or fragment)
chain: MASSEQAEQPSQPSSTPGSENVLPREPLIATAVKFLQNSRVRQSPLATRRAFLKKKGLTDEEIDMAFQQSGTAADEPSSL
B6 yielded a Kd in experiment [4] of roughly 0.5 nM.

B7: His-PEX14-NTD (domain or fragment)
chain: MASSEQAEQPSQPSSTPGSENVLPREPLIATAVKFLQNSRVRQSPLATRRAFLKKKGLTDEEIDMAFQQSGTAADEPSSL
In turn, B7 came in with a Kd in experiment [4] of roughly 1.3 nM. With MNDLVSEYQQYQDAT [LVSEY peptide], the equilibrium dissociation constant (Kd) in the experiment with 15N-PEX14(16–80W) [3] was roughly 5000 nM.
